Data on eight substances can be found in patent publication US20200024330A1.

Assay in all cases: cell-based or functional assay
Experiment [1] addresses HIV-1 Env of isolate MG RM-D-019 (subtype D) (HIV-1).
Experiment [2] concerns the target HIV-1 Env of isolate MGRM-F1-023 (HIV-1).
The target in experiment [3] is HIV-1 JR-CSF Env G471A (HIV-1 (isolate JR-CSF)) (UniProt P20871).
The target of experiment [4] is HIV-1 Env of isolate MGRM-C-020 (pseudovirus) (HIV-1 isolate MGRM-C-020, subtype C).
Experiment [5] has as its target HIV-1 JR-CSF Env F468A (HIV-1 (isolate JR-CSF)) (UniProt P20871).
For experiment [6], the target named is HIV-1 Env of isolate MGRM-F1-008 (subtype F) (HIV-1).
For experiment [7], the target named is HIV-1 MGRM-C-028 envelope glycoprotein (Env) on pseudovirus (HIV-1).
Experiment [8] has as its target HIV-1 Env of isolate MG RM-D-001 (subtype D) (HIV-1).
Experiment [9] concerns the target HIV-1 Env of isolate MG RM-D-002 (subtype D) (HIV-1).
Experiment [10] has as its target HIV-1 JR-CSF Env N160K (HIV-1 (isolate JR-CSF)) (UniProt P20871).
Experiment [11] concerns the target HIV-1 MGRM-Chronic-B-008 Env (pseudovirus) (HIV-1).
In experiment [12] the target is HIV-1 Env of isolate MG RM-D-004 (subtype D) (HIV-1).
Experiment [13] concerns the target HIV-1 JR-CSF Env Y177A (HIV-1 (isolate JR-CSF)) (UniProt P20871).
Experiment [14] concerns the target HIV-1 Env of isolate MGRM-C-027 (pseudovirus) (HIV-1 isolate MGRM-C-027, subtype C).
Experiment [15] deals with HIV-1 Env of isolate MGRM-G-028 (HIV-1).
In experiment [16] the target is HIV-1 QH0692.42 Env (pseudovirus) (HIV-1).
In experiment [17] the target is HIV-1 JR-CSF Env V127A (HIV-1 (isolate JR-CSF)) (UniProt P20871).
The target of experiment [18] is HIV-1 JR-CSF Env E466A (HIV-1 (isolate JR-CSF)) (UniProt P20871).
Experiment [19] concerns the target HIV-1 Env of isolate MGRM-D-022 (HIV-1).
Experiment [20] deals with HIV-1 Env of isolate MGRM-A-010 (clade A), on pseudovirus (HIV-1).
The target in experiment [21] is HIV-1 Env of isolate MGRM-AG-013 (CRF_AG), on pseudovirus (HIV-1).
The target of experiment [22] is HIV-1 Env of isolate APV-17 (pseudovirus) (HIV-1 isolate APV-17, subtype B).
The target in experiment [23] is HIV-1 Env of isolate MGRM-Chronic-B-008 (HIV-1).
Experiment [24] has as its target HIV-1 Env of isolate MGRM-F1-021 (subtype F), on pseudovirus (HIV-1).
The target in experiment [25] is HIV-1 Env of isolate THR0.18 (HIV-1).
The target of experiment [26] is HIV-1 Env of isolate 98CN009 (HIV-1).
Experiment [27] concerns the target HIV-1 Env of isolate MGRM-F1-017 (subtype F), on pseudovirus (HIV-1).
The target of experiment [28] is HIV-1 Env of isolate MGRM-D-004 (HIV-1).
In experiment [29] the target is HIV-1 Env of isolate SF162 (HIV-1) (UniProt P19550).
Experiment [30] addresses HIV-1 Env of isolate MGRM-AG-002 (CRF_AG), on pseudovirus (HIV-1).

5329_C19 (PGT-136) (antibody), sequence (VH): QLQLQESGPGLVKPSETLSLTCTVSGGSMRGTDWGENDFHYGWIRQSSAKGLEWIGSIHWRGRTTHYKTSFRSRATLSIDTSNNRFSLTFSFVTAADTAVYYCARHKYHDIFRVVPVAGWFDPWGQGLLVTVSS
5329_C19 (PGT-136) (antibody), sequence (VL): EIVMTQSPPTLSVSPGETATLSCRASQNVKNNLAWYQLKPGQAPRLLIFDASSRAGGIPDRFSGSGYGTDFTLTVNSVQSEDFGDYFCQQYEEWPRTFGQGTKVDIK
5345_I01 (PGT-137) (antibody), sequence (VH): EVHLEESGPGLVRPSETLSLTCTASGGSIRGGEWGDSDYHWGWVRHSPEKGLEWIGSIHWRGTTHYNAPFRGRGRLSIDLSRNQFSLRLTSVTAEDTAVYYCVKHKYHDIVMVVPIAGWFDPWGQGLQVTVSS
5345_I01 (PGT-137) (antibody), sequence (VL): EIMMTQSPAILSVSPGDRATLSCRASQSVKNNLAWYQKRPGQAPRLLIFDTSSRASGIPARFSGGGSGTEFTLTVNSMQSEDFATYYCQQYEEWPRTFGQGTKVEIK

Turning to 4858_P08 (PGT-123) (antibody), the IC50 (µg/mL), pseudovirus neutralization was > 50 µg/mL in [1]; > 50 µg/mL in [6]; 0.147 µg/mL in experiment [8]; 0.012 µg/mL in experiment [9]; > 50 µg/mL in [12]. Further, the IC50 in experiment [2] was 0.053 µg/mL. For the same substance, the Fold IC50 increase relative to wild-type turned out to be 1.3 fold in [3]; 0.5 fold in experiment [5]; 1 fold in [10]; 2.4 fold in experiment [13]; 1.2 fold in experiment [17]; 0.6 fold in experiment [18]. The IC50 (µg/mL) neutralization was > 50 µg/mL in experiment [4] and 0.02 µg/mL in [14]. Besides, the IC50 (ug/ml), neutralizing activity in experiment [7] was determined as 0.443 µg/mL. Moreover, the IC50, pseudovirus neutralization stood at 0.443 µg/mL in experiment [7], 0.01 µg/mL in experiment [11], 0.008 µg/mL in [15] and 0.158 µg/mL in experiment [16]. The substance further came in with an IC80, pseudovirus neutralization in [7] of 2.8 µg/mL. The substance further yielded an IC90 (pseudovirus neutralization) in experiment [7] of 7.11 µg/mL. Further, the IC95, pseudovirus neutralization in experiment [7] was > 10 µg/mL.
Turning to 5114_A19 (PGT-128) (antibody), the Fold IC50 increase relative to wild-type in [3] was 0.9 fold; in experiment [5] it was 0.5 fold; in [10] it was 1 fold; in [13], 1.4 fold; in experiment [17], 1.1 fold; in [18], 0.6 fold. Also, the IC50 in experiment [19] is > 50 µg/mL; in experiment [23], 0.143 µg/mL; in [25], > 50 µg/mL; in [26], 0.025 µg/mL; in [28], 24.9 µg/mL; in experiment [29], 0.007 µg/mL. Also, the figures for the IC50, single-round pseudovirus neutralization in [20], in [21] and in experiment [30] were 0.005 µg/mL, 0.004 µg/mL and 4.99 µg/mL, respectively. The IC50 (µg/mL) neutralization in experiment [22] was 0.016 µg/mL. The IC50, pseudovirus neutralization in experiment [24] was > 50 µg/mL; in experiment [15] it was 0.008 µg/mL; in experiment [27], 11.7 µg/mL.
With 5123_A06 (PGT-125) (antibody), the IC50 (µg/mL), pseudovirus neutralization in [1] stood at 0.049 µg/mL; in [6] it was 0.361 µg/mL; in experiment [8] it was 2.84 µg/mL; in experiment [9], 0.118 µg/mL; in experiment [12], 0.371 µg/mL. Besides, in experiment [2], the IC50 was 0.12 µg/mL. The Fold IC50 increase relative to wild-type in experiment [3] is 1 fold; in experiment [5], 1 fold; in [10], 0.5 fold; in experiment [13] it was 1.1 fold; in experiment [17], 0.9 fold; in [18] it was 1.6 fold. The IC50 (µg/mL) neutralization in experiment [4] and in [14] was > 50 µg/mL each time. The substance further came in with an IC50 (ug/ml), neutralizing activity in [7] of 5.78 µg/mL. Also, the neutralization IC50 in experiment [7] was determined as 5.78 µg/mL. In addition, the neutralization IC80 in experiment [7] was > 10 µg/mL. For the same substance, the neutralization IC90 in experiment [7] was > 10 µg/mL. The neutralization IC95 in experiment [7] is > 10 µg/mL. Further, the figures for the IC50, pseudovirus neutralization in [11], in [15] and in experiment [16] were > 50 µg/mL, 0.012 µg/mL and 0.048 µg/mL, respectively.
For 5136_H01 (PGT-131) (antibody), the Fold IC50 increase relative to wild-type came to 1.2 fold in experiment [3]; 1.6 fold in [5]; 0.4 fold in [10]; 5.3 fold in experiment [13]; 0.6 fold in [17]; 1.7 fold in [18]. Moreover, the IC50 is > 50 µg/mL in experiment [19]; > 50 µg/mL in experiment [23]; > 50 µg/mL in experiment [25]; 4.05 µg/mL in experiment [26]; 2.01 µg/mL in [28]; 0.025 µg/mL in [29]. Further, the IC50, single-round pseudovirus neutralization is 0.01 µg/mL in experiment [20], 0.03 µg/mL in [21] and > 50 µg/mL in experiment [30]. The IC50 (µg/mL) neutralization in [22] is > 50 µg/mL. Also, the figures for the IC50, pseudovirus neutralization in [24], in [15] and in experiment [27] were > 50 µg/mL, 0.466 µg/mL and > 50 µg/mL, respectively.
As to 5141_B17 (PGT-126) (antibody), the IC50 (µg/mL), pseudovirus neutralization in experiment [1] is > 50 µg/mL; in experiment [6] it was > 50 µg/mL; in experiment [8] it was 0.084 µg/mL; in [9], 0.039 µg/mL; in experiment [12], > 50 µg/mL. For the same substance, the IC50 in experiment [2] was found to be 0.009 µg/mL. Also, the Fold IC50 increase relative to wild-type in [3] is 1.2 fold; in experiment [5], 0.7 fold; in [10], 0.5 fold; in experiment [13], 0.9 fold; in [17] it was 1.3 fold; in experiment [18] it was 1.4 fold. In addition, the IC50 (µg/mL) neutralization is > 50 µg/mL in experiment [4] and 15.6 µg/mL in experiment [14]. This substance came in with an IC50 (ug/ml), neutralizing activity in experiment [7] of 0.283 µg/mL. The IC50, pseudovirus neutralization in [11] is 5.89 µg/mL; in experiment [15], 0.012 µg/mL; in experiment [16], 0.048 µg/mL.
For 5145_B14 (PGT-127) (antibody), the IC50 (µg/mL), pseudovirus neutralization is > 50 µg/mL in [1]; > 50 µg/mL in experiment [6]; 2.23 µg/mL in experiment [8]; 0.6 µg/mL in experiment [9]; > 50 µg/mL in experiment [12]. In experiment [2], the IC50 stood at 0.119 µg/mL. For the same substance, the Fold IC50 increase relative to wild-type in experiment [3] is 1.2 fold; in [5], 3 fold; in [10] it was 0.8 fold; in [13], 2.9 fold; in experiment [17], 2.5 fold; in [18], 0.9 fold. In addition, the IC50 (µg/mL) neutralization in experiment [4] and in experiment [14] was > 50 µg/mL throughout. For the same substance, the IC50, pseudovirus neutralization in experiment [11] stood at 21.5 µg/mL; in experiment [15], 0.032 µg/mL; in experiment [16], 0.129 µg/mL.
For the substance 5329_C19 (PGT-136) (antibody), the IC50 in experiment [19] was > 50 µg/mL; in [23], > 50 µg/mL; in experiment [25] it was > 50 µg/mL; in experiment [26], 0.428 µg/mL; in experiment [28], > 50 µg/mL; in experiment [29] it was 0.482 µg/mL. Moreover, the IC50, single-round pseudovirus neutralization in [20], in [21] and in [30] was > 50 µg/mL throughout. The IC50 (µg/mL) neutralization in experiment [22] is > 50 µg/mL. For the same substance, the IC50, pseudovirus neutralization in experiment [24], in experiment [15] and in experiment [27] was > 50 µg/mL each time.
Consider 5345_I01 (PGT-137) (antibody), for which the IC50 in [19] was > 50 µg/mL; in [23] it was > 50 µg/mL; in experiment [25], > 50 µg/mL; in experiment [26] it was 5.06 µg/mL; in [28] it was > 50 µg/mL; in experiment [29], 3.41 µg/mL. In addition, the IC50, single-round pseudovirus neutralization in experiment [20], in experiment [21] and in experiment [30] was > 50 µg/mL in each case. Also, the IC50 (µg/mL) neutralization in experiment [22] is > 50 µg/mL. In addition, the IC50, pseudovirus neutralization in experiment [24], in [15] and in [27] was > 50 µg/mL each time.

What is called IC50 is the concentration at which inhibition is half-maximal.
